# Laboratory results published in the DeepSol protein solubility set.
# Assay: soluble on expression in E. coli; label from the status in PepcDB or PDB records
row,Sequence,soluble on expression in E. coli
1,STSTSGLTARISQTLFTSNSFVEEVASILQHWDTGLEASKRRIQDAKEKNSTVLDLQQLELSNEIFNELWPSIREIRNLKYLNLFLNRLTELPSDFGALSTLETLNLACNPLQSVPDSFSDLAMLRELDLGFTSTLCTVPEIFEKMTQLKVLYAGNNRLEKLPESVISLQCLEELHLYGNALNALPENIGNLKSLRLLNVGRNNLSSLPNSIGSLSSLEVLYLYENDLSSLPRSMKDLSKLRVLGLDGNPSLSSLPEHIKEPNAKAVAAYYAEME,soluble
2,STTGLVTPGDVIGKATEFKAGKGAYVNDATIYASLTGTCRIVSPLPESIDQRAIVEVTGHKAHGPIPETGSVVIARVTKVMTKMAAVDILCVGSKAVRENFAGVIRQQDVRATEIDKVDMHQSFHAGDIVRAMVLSLGDARAYYLSTAKNELGVVSAESAAGETMVPISWTEMQCPLSGQTEQRKVAKVGN,soluble
3,SVIRELNKNWQSHAFDGFEVNWTEQQQMVSCLYTLGYPPAQAQGLHVTSISWNSTGSVVACAYGRLDHGDWSTLKSFVCAWNLDRRDLRPQQPSAVVEVPSAVLCLAFHPTQPSHVAGGLYSGEVLVWDLSRLEDPLLWRTGLTDDTHTDPVSQVVWLPEPGHSHRFQVLSVATDGKVLLWQGIGVGQLQLTEGFALVMQQLPRSTKLKKHPRGETEVGATAVAFSSFDPRLFILGTEGGFPLKCSLAAGEAALTRMPSSVPLRAPAQFTFSPHGGPIYSVSCSPFHRNLFLSAGTDGHVHLYSMLQAPPLTSLQLSLKYLFAVRWSPVRPLVFAAASGKGDVQLFDLQKSSQKPTVLIKQTQDESPVYCLEFNSQQTQLLAAGDAQGTVKVWQLSTEFTEQGPREAEDLDCLAAEVAA,soluble
4,SVKVVIEADGGSRGNPGPAGYGAVVWTADHSTVLAESKQAIGRATNNVAEYRGLIAGLDDAVKLGATEAAVLMDSKLVVEQMSGRWKVKHPDLLKLYVQAQALASQFRRINYEWVPRARNTYADRLANDAMDAAAQSAAAD,soluble
5,SVLVLDDRIVDAATKDLYVNGFQEEIQYQNPTPENLQHMFHQGIEILDSARMINVTHLALWKPSSFKLGNPVDFALDDNYDTFWQSDGGQPHQLDIMFSKRMDICVMAIFFSMIADESYAPSLVKVYAGHSPSDARFYKMLEVRNVNGWVALRFLDNREDDQLLKCQFIRLLFPVNHENGKDTHLRGIRLYVPSNEPHQDTHEWAQTLPETNNVFQDAILR,soluble
6,SVNAATVDLRIMETTDLHSNMMDFDYYKDAATEKFGLVRTASLIEQARAEVKNSVLVDNGDVIQGSPLGDYMAAKGLKEGDVHPVYKAMNTLNYAVGNLGNHEFNYGLDFLHKALAGAKFPYVNANIIDAKTGKPMFTPYLIQDTRVVDSDGQIHTLRIGYIGFVPPQIMTWDKANLNGKVTVNDITETARKYIPEMRAKGADVVVVVAHSGLSADPYQAMAENSVYYLSQVPGVDAIMFGHAHAVFPGKDFANIKGADIAKGTLNGVPAVMPGMWGDHLGVVDLVLNNDSGKWQVTQSKAEARPIYDAVAKKSLAAEDGKLVSVLKADHDATREFVSK,soluble
7,SVNYYKVLGVPRNASSSDIKRAFHQLALQVHPDKNPGDKEAAEEKFKQVAEAYHILSDAKKRKDYDRSRWNRNKGEIRGDGHDKGETIRVNDSRDETDWEEKICSRRPRHTFQKVTEDEDLFSGDCLFSGPITGSRRASSPFFTVTPIMDTGFSTFVSHESRSYSDDPETFVPYISQGMGKFRLVTTCSKTVNGKRVVTKRVVENIRGPKKIENERLFRHNPSRGWKLMENPCS,soluble
8,SVREANIKQATAEKQLKEAQGKIDVLQAEVAALKTLVLSSSPTSPTQEPLPGGKTPFKKGHTRNKSTSSAMSGSHQDLSVIQPIVKDCKEADLSLYNEFRLWKDEPTMDRTCPFLDKIYQEDIFPCLTFSKSELASAVLEAVENNTLSIEPVGLQPIRFVKASAVECGGPKKCALTGQSKSCKHRIKLGDSSNYYYISPFCRYRITSVCNFFTYIRYIQQGLVKQQDVDQMFWEVMQLRKEMSLAKLGYFKEEL,soluble
9,SVTDNNGAVKFPQLCKFCDVRFSTCDNQKSCMSNCSITSICEKPQEVCVAVWRKNDENITLETVCHDPKLPYHDFILEDAASPKCIMKEKKKPGETFFMCSCSSDECNDNIIFSEEYNTSNPD,soluble
10,SVYTYFSAVAGQDGEVDAEELQRCLTQSGINGTYSPFSLETCRIMIAMLDRDHTGKMGFNAFKELWAALNAWKENFMTVDQDGSGTVEHHELRQAIGLMGYRLSPQTLTTIVKRYSKNGRIFFDDYVACCVKLRALTDFFRKRDHLQQGSANFIYDDFLQGTMAI,soluble
11,TAAVALVKANENAAAILNLKNAIQKTNAAVADVVQATQSLGTAVQAVQDHINSVVSPAITAANY,soluble
12,TDKVTDADLETLRKLQEEFATELAISRGRVDALEARSADIQAQQFSPNVVLGGQTIFGLAGGFGGNRPGDGEANTIFTYLTQLQLASSFTGKDRFRVGLISGNAANNSFENLQAFNTNMARLAWQGNYDNQVSINSVEYRVAGLGDRVVFTFKPVGFSLGSVLSPNSIYADAGQGAISAFAGSTPILRIGNLDAGLGFDWLLSDEIRLQFAYGTRGSSDSNQGLFGADHSALGLQFLYKPTPSLITGLAYINAYSSDGHLDTGTGSSNADTSGGINEPSQIHALNASMRWQLTNKLVLGAWGGVMVTDSLKSDAVVLSSTYTVSLGIYDPFGRKGDLFGFLYGLPPKLNNGVLIPTADTGNSTHYEVFYRYLVNDNIAITPGFFLVTDPGHISSNNDIFIGAIRTTFNF,not soluble
13,TDVATVVSQAKAQMKEAYYTYSHTVTETGQFPDIKDVYAAYNKAKQAYANAVAVVNKAGGAKKDAYLADLQAIYETYVFKANPKSGEARVATYIDAYNYATKLDKMRQELKAAVDAKDLKKAEELYHKISYELKTRTVILDRVYGQSTRELLRSTFKADAQALRDRLIYDITVAMKAREAQDAVKAGNLDKAKAALDQVNQYVSKVTDAFKAELQKAAQDAKAAYEAALTPKVESVSAIDSTSFKVTFTKPVDKATAIPKNFSITLKGTETKLYPKSVEVSESGLTATVTLYDTLVDGKTYTVVTSGLKDTAGKEFETSTNEFTYNKPVPASITFNFNKLPEDSAVDLTKYVTVKDAAGNVIKSGFELEFTSSEKLTQGKFINTTGKKSVIVNATVKGTNVTTGNVILAVED,soluble
14,TEPPGVIIVGESEFSFHLGINLRDHGIPVMMFNLFENTSEKAHEAGFEVFKGNLLSSNDRIYSDLLRYNKCILMTQSFIFNSLAFNELVPEFGLNNVDMMPVSFNDEQARNNLNGPIRNHILFDENHTPRWFNQFITQHNIVEVPAEDYEKITEN,not soluble
15,TEQKQKHMEQLSDKNGIISALAFDQRGALKRLMAKYQSEEPTVSQIEALKVLVAEELTPYASSMLLDPEYGLPATKVLDDNAGLLLAYEKTGYDTSSTKRLPDCLDIWSAKRIKEEGADAVKFLLYYDVDSSDEVNEEKEAYIERIGSECVAEDIPFFLEILSYDEKITDSSGIEYAKIKPRKVIEAMKVFSNPRFNIDVLKVEVPVNMDYVEGFAQGETAYNKATAAAYFREQDQATLLPYIFLSAGVPAQLFQETLVFAKEAGAKFNGVLCGRATWAGSVKEYVEKGEAGARQWLRTIGFQNIDELNKILQKTATSWKE,soluble
16,TESVYITTPYLIIDYDLTETIKNAAMRGVDVRIITPYIPDKKFIQLVTRGAYPDLLSAGVRIYEYSPGFIHSKQMLVDEDFAVVGTINLDYRSLVHHYENAVLLYKTPSIREIARDFRNIFADSQEVYPHSIKT,not soluble
17,TIDAQLQKRAEQAFGDQAGAAVVMEVNTGEILAFVSNPEFDPALFAGRMPPEIWKQYLEDKRHPLENKALKGQYPPGSTYKIITALAGLEEGIIDDHTTVTCKGSYALGNTTFRCWDKKGHGAVDLRRALRESCDVYFYVLGEKLGIDRLSAYAQKFALGAPMGVGLDNEKGGLIPTSAWKLQRHKTRWFQGDTLSAAIGQGYVLMTPIQLASMTAAIATDGIVYRPRLVKRIIDRDGKVLREFQPEIITRADISPRSFKSVKEGLWAVVNESGGTGGMSRIPDVRVAGKTGTSQVVKLRDTRGFIPYQYRDHALFVAYAPYEHPEVAVAVVIEHGEHGGSAAAPIAGSILRAYFEGKGVIRR,not soluble
